One series addresses OGG1 (UniProt O15527 1-345). In words: EMSA; 10 mM HEPES pH 7.9, 10 mM KCl, 1.5 mM MgCl2, 1 mM DTT, 5% glycerol, 20 nM Cy5-DNA, on ice; 6% PAGE at 4 C. The settings on record: protein: commercial; tags: His; label: 5'-Cy5 on strand 1; blunt. Background: In EMSA bound probe runs differently from free probe, usually more slowly.
Series [1] addresses T1, SMAD3 (UniProt P84022 1-425). The description is as above. The settings on record: protein: recombinant; label: 5'-Cy5 on strand 1; blunt.
Series [2] addresses T1, SMAD3. The series is described as follows: EMSA; OGG1 + TH2840 (no decrease); 10 mM HEPES pH 7.9, 10 mM KCl, 1.5 mM MgCl2, 1 mM DTT, 5% glycerol, 20 nM Cy5-DNA, on ice; 6% PAGE at 4 C. The settings on record: protein: recombinant; label: 5'-Cy5 on strand 1; blunt.
For another series, the target named is SMAD2 (UniProt Q15796 1-467). The series is described as follows: EMSA; with OGG1 100 nM, SMAD2 800 nM; shift increased; 10 mM HEPES pH 7.9, 10 mM KCl, 1.5 mM MgCl2, 1 mM DTT, 5% glycerol, 20 nM Cy5-DNA, on ice; 6% PAGE at 4 C. To be noted: protein: recombinant; label: 5'-Cy5 on strand 1; blunt.
Sequence of SMAD2 (Q15796 whole entry): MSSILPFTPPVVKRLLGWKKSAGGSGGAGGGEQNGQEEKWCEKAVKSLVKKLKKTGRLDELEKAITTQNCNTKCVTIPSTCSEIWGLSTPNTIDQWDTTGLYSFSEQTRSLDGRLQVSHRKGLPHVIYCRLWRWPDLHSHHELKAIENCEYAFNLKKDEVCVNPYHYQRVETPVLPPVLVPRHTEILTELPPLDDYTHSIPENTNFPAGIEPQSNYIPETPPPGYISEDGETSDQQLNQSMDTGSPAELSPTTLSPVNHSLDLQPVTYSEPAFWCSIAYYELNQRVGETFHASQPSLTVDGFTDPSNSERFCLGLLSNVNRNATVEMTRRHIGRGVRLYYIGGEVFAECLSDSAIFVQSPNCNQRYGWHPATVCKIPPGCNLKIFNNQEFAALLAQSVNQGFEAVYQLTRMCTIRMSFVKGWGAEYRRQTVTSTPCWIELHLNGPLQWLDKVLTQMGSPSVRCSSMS

T1 sequence (P84022 whole entry): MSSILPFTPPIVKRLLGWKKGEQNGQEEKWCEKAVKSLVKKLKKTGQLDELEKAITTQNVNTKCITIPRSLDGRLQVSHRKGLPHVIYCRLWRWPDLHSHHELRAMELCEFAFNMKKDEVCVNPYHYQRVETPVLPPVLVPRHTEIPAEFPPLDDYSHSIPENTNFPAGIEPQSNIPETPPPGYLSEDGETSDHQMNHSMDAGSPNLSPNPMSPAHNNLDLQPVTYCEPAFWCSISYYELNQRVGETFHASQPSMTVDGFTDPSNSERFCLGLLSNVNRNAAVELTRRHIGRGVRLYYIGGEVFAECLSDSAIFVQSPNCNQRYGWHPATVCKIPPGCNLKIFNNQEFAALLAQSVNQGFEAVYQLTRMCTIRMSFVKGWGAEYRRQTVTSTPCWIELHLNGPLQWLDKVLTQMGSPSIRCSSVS
Sequence of OGG1 (O15527 whole entry): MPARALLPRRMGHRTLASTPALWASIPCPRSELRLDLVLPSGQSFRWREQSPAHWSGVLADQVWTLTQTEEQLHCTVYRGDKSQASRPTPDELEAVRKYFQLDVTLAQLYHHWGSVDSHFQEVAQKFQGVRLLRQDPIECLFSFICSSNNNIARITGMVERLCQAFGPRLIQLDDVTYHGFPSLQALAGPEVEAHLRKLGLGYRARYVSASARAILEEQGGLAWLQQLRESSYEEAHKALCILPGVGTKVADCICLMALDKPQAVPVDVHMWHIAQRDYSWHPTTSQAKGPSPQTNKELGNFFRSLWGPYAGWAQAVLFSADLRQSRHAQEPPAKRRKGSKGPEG

B1: G'1 (dsDNA)
DNA 1: CCCCAGGGTGAGCCCAGCTCAGACTATCATCCGGAAAGCCCCCAAAAGTCCCAGCCC
DNA 2: GGGCTGGGACTTTTGGGGGCTTTCCGGATGATAGTCTGAGCTGGGCTCACCCTGGGG
modifications: 8-oxoG at strand 1 position 6
Regarding B1, the binding result with OGG1 and in the series with SMAD3 [1] was “binds” each time.

B2: G'3 (dsDNA)
DNA 1: B1 DNA 1
DNA 2: B1 DNA 2
modifications: 8-oxoG at strand 2 position 43 from its 5' end (opposite strand 1 position 15)
For B2, the binding result with OGG1, with SMAD3 [2] and with SMAD2 was “binds” in each case.

B3: G'2 (dsDNA)
DNA 1: B1 DNA 1
DNA 2: B1 DNA 2
modifications: 8-oxoG at strand 2 position 6 from its 5' end
As for B3, the binding result in the series with OGG1 and in the series with SMAD3 [1] was “binds” in each case.

B4: G (dsDNA)
DNA 1: B1 DNA 1
DNA 2: B1 DNA 2
As for B4, the binding result in the series with SMAD3 [1] is listed as “binds”.
